Test results published in patent publication US20230272055A1 (Incyte, published 2023).

B1: anti-mutCALR antibody clone 75 (antibody, human IgG1, lambda, N297A, V domains shown)
VH: EVQLVQSGAEVKKPGASVKVSCKVSGYTLTELSMQWVRQAPGKGLEWMGGFDPDDGETMYAEKFQGRLTVTEDTSTDTVYMELRSLTSEDTALYFCATSPGYDFFDYWGQGTLVTVSS
VL: SYVLTQPPSVSVAPGKTARITCGGNNIGSKSVHWYQQKPGQAPVLVVYDDSDRPSGIPERFSGSNSGNTATLTISRVEAGDEADYYCQVWDSSNDLLIFGGGTKLTVLG
notes: human IgG1 N297A variant of clone 6
B2: anti-mutCALR antibody clone 80 (antibody, human IgG1, lambda, N297A, V domains shown)
VH: EVQLVQSGAEVKKPGASVKVSCKVSGYTLTELSMQWVRQAPGKGLEWMGGFDPDDGETMYAEKFQGRLTVTEDTSTDTVYMELSSLRSEDTAVYFCATSPGYDFFDYWGQGTLVTVSS
VL: SYVLTQPPSVSVAPGKTARITCGGNNIGSKSVHWYQQKPGQAPVLVVYDDSDRPSGIPERFSGSNSGNTATLTISRVEAGDEADYYCQVWDSSNDLLIFGGGTKLTVLG
notes: as for B1
B3: anti-mutCALR antibody clone 82 (antibody, human IgG1, lambda, N297A, V domains shown)
VH: EVQLVQSGAEVKKPGASVKVSCKVSGYTLTELSMQWVRQAPGKGLEWMGGFDPDSGETMYAEKFQGRLTVTEDTSTDTVYMELSSLRSEDTAVYFCATSPGYDFFDYWGQGTLVTVSS
VL: SYVLTQPPSVSVAPGKTARITCGGNNIGSKSVHWYQQKPGQAPVLVVYDDSDRPSGIPERFSGSNSGNTATLTISRVEAGDEADYYCQVWDSSNDLLIFGGGTKLTVLG
notes: as for B1
B4: anti-mutCALR antibody clone 78 (antibody, human IgG1, lambda, N297A, V domains shown)
VH: EVQLVQSGAEVKKPGASVKVSCKVSGYTLTELSMQWVRQAPGKGLEWMGGFDPDEGETMYAEKFQGRLTVTEDTSTDTVYMELRSLTSEDTALYFCATSPGYDFFDYWGQGTLVTVSS
VL: SYVLTQPPSVSVAPGKTARITCGGNNIGSKSVHWYQQKPGQAPVLVVYDDSDRPSGIPERFSGSNSGNTATLTISRVEAGDEADYYCQVWDSSNDLLIFGGGTKLTVLG
notes: as for B1
B5: anti-mutCALR antibody clone 84 (antibody, human IgG1, lambda, N297A, V domains shown)
VH: EVQLVQSGAEVKKPGASVKVSCKVSGYTLTELSMQWVRQAPGKGLEWMGGFDPDDAETMYAEKFQGRLTVTEDTSTDTVYMELSSLRSEDTAVYFCATSPGYDFFDYWGQGTLVTVSS
VL: SYVLTQPPSVSVAPGKTARITCGGNNIGSKSVHWYQQKPGQAPVLVVYDDSDRPSGIPERFSGSNSGNTATLTISRVEAGDEADYYCQVWDSSNDLLIFGGGTKLTVLG
notes: as for B1
B6: anti-mutCALR antibody clone 81 (antibody, human IgG1, lambda, N297A, V domains shown)
VH: EVQLVQSGAEVKKPGASVKVSCKVSGYTLTELSMQWVRQAPGKGLEWMGGFDPDAGETMYAEKFQGRLTVTEDTSTDTVYMELSSLRSEDTAVYFCATSPGYDFFDYWGQGTLVTVSS
VL: SYVLTQPPSVSVAPGKTARITCGGNNIGSKSVHWYQQKPGQAPVLVVYDDSDRPSGIPERFSGSNSGNTATLTISRVEAGDEADYYCQVWDSSNDLLIFGGGTKLTVLG
notes: as for B1
B7: anti-mutCALR antibody clone 131 (antibody, human IgG1, lambda, N297A, V domains shown)
VH: EVQLVQSGAEVKKPGASVKVSCKVSGYTLTELSMQWVRQAPGKGLEWMGGFDPDSGETMYAEKFQGRLTVTEDTSTDTVYMELSSLRSEDTAVYFCATSPGYDFFDYWGQGTLVTVSS
VL: SYELTQPPSVSVAPGKTARITCGGDNIGSKSVHWYQQKPGQAPVLVVYDDSDRPSGIPERFSGSNSGNTATLTINRVEAGDEADYYCQVWDSSNDLLIFGGGTKLTVLG
notes: human IgG1 N297A variant of clone 15
B8: anti-mutCALR antibody clone 130 (antibody, human IgG1, lambda, N297A, V domains shown)
VH: EVQLVQSGAEVKKPGASVKVSCKVSGYTLTELSMQWVRQAPGKGLEWMGGFDPDAGETMYAEKFQGRLTVTEDTSTDTVYMELSSLRSEDTAVYFCATSPGYDFFDYWGQGTLVTVSS
VL: SYELTQPPSVSVAPGKTARITCGGDNIGSKSVHWYQQKPGQAPVLVVYDDSDRPSGIPERFSGSNSGNTATLTINRVEAGDEADYYCQVWDSSNDLLIFGGGTKLTVLG
notes: as for B7
B9: anti-mutCALR antibody clone 77 (antibody, human IgG1, lambda, N297A, V domains shown)
VH: EVQLVQSGAEVKKPGASVKVSCKVSGYTLTELSMQWVRQAPGKGLEWMGGFDPDSGETMYAEKFQGRLTVTEDTSTDTVYMELRSLTSEDTALYFCATSPGYDFFDYWGQGTLVTVSS
VL: SYVLTQPPSVSVAPGKTARITCGGNNIGSKSVHWYQQKPGQAPVLVVYDDSDRPSGIPERFSGSNSGNTATLTISRVEAGDEADYYCQVWDSSNDLLIFGGGTKLTVLG
notes: as for B1
B10: anti-mutCALR antibody clone 128 (antibody, human IgG1, lambda, N297A, V domains shown)
VH: EVQLVQSGAEVKKPGASVKVSCKVSGYTLTELSMQWVRQAPGKGLEWMGGFDPDDAETMYAEKFQGRLTVTEDTSTDTVYMELRSLTSEDTALYFCATSPGYDFFDYWGQGTLVTVSS
VL: SYELTQPPSVSVAPGKTARITCGGDNIGSKSVHWYQQKPGQAPVLVVYDDSDRPSGIPERFSGSNSGNTATLTINRVEAGDEADYYCQVWDSSNDLLIFGGGTKLTVLG
notes: as for B7
B11: anti-mutCALR antibody clone 125 (antibody, human IgG1, lambda, N297A, V domains shown)
VH: EVQLVQSGAEVKKPGASVKVSCKVSGYTLTELSMQWVRQAPGKGLEWMGGFDPDAGETMYAEKFQGRLTVTEDTSTDTVYMELRSLTSEDTALYFCATSPGYDFFDYWGQGTLVTVSS
VL: SYELTQPPSVSVAPGKTARITCGGDNIGSKSVHWYQQKPGQAPVLVVYDDSDRPSGIPERFSGSNSGNTATLTINRVEAGDEADYYCQVWDSSNDLLIFGGGTKLTVLG
notes: as for B7
B12: anti-mutCALR antibody clone 76 (antibody, human IgG1, lambda, N297A, V domains shown)
VH: EVQLVQSGAEVKKPGASVKVSCKVSGYTLTELSMQWVRQAPGKGLEWMGGFDPDAGETMYAEKFQGRLTVTEDTSTDTVYMELRSLTSEDTALYFCATSPGYDFFDYWGQGTLVTVSS
VL: SYVLTQPPSVSVAPGKTARITCGGNNIGSKSVHWYQQKPGQAPVLVVYDDSDRPSGIPERFSGSNSGNTATLTISRVEAGDEADYYCQVWDSSNDLLIFGGGTKLTVLG
notes: as for B1
B13: anti-mutCALR antibody clone 126 (antibody, human IgG1, lambda, N297A, V domains shown)
VH: EVQLVQSGAEVKKPGASVKVSCKVSGYTLTELSMQWVRQAPGKGLEWMGGFDPDSGETMYAEKFQGRLTVTEDTSTDTVYMELRSLTSEDTALYFCATSPGYDFFDYWGQGTLVTVSS
VL: SYELTQPPSVSVAPGKTARITCGGDNIGSKSVHWYQQKPGQAPVLVVYDDSDRPSGIPERFSGSNSGNTATLTINRVEAGDEADYYCQVWDSSNDLLIFGGGTKLTVLG
notes: as for B7
B14: anti-mutCALR antibody clone 83 (antibody, human IgG1, lambda, N297A, V domains shown)
VH: EVQLVQSGAEVKKPGASVKVSCKVSGYTLTELSMQWVRQAPGKGLEWMGGFDPDEGETMYAEKFQGRLTVTEDTSTDTVYMELSSLRSEDTAVYFCATSPGYDFFDYWGQGTLVTVSS
VL: SYVLTQPPSVSVAPGKTARITCGGNNIGSKSVHWYQQKPGQAPVLVVYDDSDRPSGIPERFSGSNSGNTATLTISRVEAGDEADYYCQVWDSSNDLLIFGGGTKLTVLG
notes: as for B1
B15: anti-mutCALR antibody clone 129 (antibody, human IgG1, lambda, N297A, V domains shown)
VH: EVQLVQSGAEVKKPGASVKVSCKVSGYTLTELSMQWVRQAPGKGLEWMGGFDPDDGETMYAEKFQGRLTVTEDTSTDTVYMELSSLRSEDTAVYFCATSPGYDFFDYWGQGTLVTVSS
VL: SYELTQPPSVSVAPGKTARITCGGDNIGSKSVHWYQQKPGQAPVLVVYDDSDRPSGIPERFSGSNSGNTATLTINRVEAGDEADYYCQVWDSSNDLLIFGGGTKLTVLG
notes: as for B7
B16: anti-mutCALR antibody clone 124 (antibody, human IgG1, lambda, N297A)
heavy: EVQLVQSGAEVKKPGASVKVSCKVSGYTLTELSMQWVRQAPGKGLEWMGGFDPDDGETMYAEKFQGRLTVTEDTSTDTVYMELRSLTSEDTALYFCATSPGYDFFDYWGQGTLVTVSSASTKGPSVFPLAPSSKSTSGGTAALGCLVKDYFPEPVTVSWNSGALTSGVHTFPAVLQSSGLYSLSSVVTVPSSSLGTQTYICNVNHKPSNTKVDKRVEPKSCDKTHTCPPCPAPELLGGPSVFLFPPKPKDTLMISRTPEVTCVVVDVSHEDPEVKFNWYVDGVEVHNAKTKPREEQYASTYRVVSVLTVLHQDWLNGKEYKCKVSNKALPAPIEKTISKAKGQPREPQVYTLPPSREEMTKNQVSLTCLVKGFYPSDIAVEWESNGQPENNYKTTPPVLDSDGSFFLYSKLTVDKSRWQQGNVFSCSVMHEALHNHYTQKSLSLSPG
light: SYELTQPPSVSVAPGKTARITCGGDNIGSKSVHWYQQKPGQAPVLVVYDDSDRPSGIPERFSGSNSGNTATLTINRVEAGDEADYYCQVWDSSNDLLIFGGGTKLTVLGQPKAAPSVTLFPPSSEELQANKATLVCLISDFYPGAVTVAWKADSSPVKAGVETTTPSKQSNNKYAASSYLSLTPEQWKSHRSYSCQVTHEGSTVEKTVAPTECS
notes: as for B7
B17: anti-mutCALR antibody clone 133 (antibody, human IgG1, lambda, N297A, V domains shown)
VH: EVQLVQSGAEVKKPGASVKVSCKVSGYTLTELSMQWVRQAPGKGLEWMGGFDPDDAETMYAEKFQGRLTVTEDTSTDTVYMELSSLRSEDTAVYFCATSPGYDFFDYWGQGTLVTVSS
VL: SYELTQPPSVSVAPGKTARITCGGDNIGSKSVHWYQQKPGQAPVLVVYDDSDRPSGIPERFSGSNSGNTATLTINRVEAGDEADYYCQVWDSSNDLLIFGGGTKLTVLG
notes: as for B7
B18: anti-mutCALR antibody clone 132 (antibody, human IgG1, lambda, N297A, V domains shown)
VH: EVQLVQSGAEVKKPGASVKVSCKVSGYTLTELSMQWVRQAPGKGLEWMGGFDPDEGETMYAEKFQGRLTVTEDTSTDTVYMELSSLRSEDTAVYFCATSPGYDFFDYWGQGTLVTVSS
VL: SYELTQPPSVSVAPGKTARITCGGDNIGSKSVHWYQQKPGQAPVLVVYDDSDRPSGIPERFSGSNSGNTATLTINRVEAGDEADYYCQVWDSSNDLLIFGGGTKLTVLG
notes: as for B7
B19: anti-mutCALR antibody clone 79 (antibody, human IgG1, lambda, N297A, V domains shown)
VH: EVQLVQSGAEVKKPGASVKVSCKVSGYTLTELSMQWVRQAPGKGLEWMGGFDPDDAETMYAEKFQGRLTVTEDTSTDTVYMELRSLTSEDTALYFCATSPGYDFFDYWGQGTLVTVSS
VL: SYVLTQPPSVSVAPGKTARITCGGNNIGSKSVHWYQQKPGQAPVLVVYDDSDRPSGIPERFSGSNSGNTATLTISRVEAGDEADYYCQVWDSSNDLLIFGGGTKLTVLG
notes: as for B1

What follows are binders tested against T1, Recombinant MBP-mutCALR Type 1 fusion protein (human) (assay: SPR, IgG captured, 1:1 fit, Exp. 2).
T1 construct: custom made at Cepter; also called recombinant mutCALR protein
Protocol: Experiment 2: Recombinant MBP-mutCALR Type 1 fusion protein was custom made at Cepter (cepterbiopartners.com). Data for the interaction of antibodies with recombinant mutCALR protein were collected at 25° C. on a Biacore 8K instrument (Cytiva, Marlborough, Mass.), and all reagents were obtained from Cytiva unless otherwise specified. The experiments were conducted using Tris-buffered saline (pH 7.2), 0.005% Surfactant P20, 1 mM CaCl₂) as running buffer. To prepare the capture surfaces, anti-human IgG (Fc) antibodies (Product #29234600) was amine-coupled onto a CM4 chip (Product #BR100534) under standard conditions using an Amine Coupling Kit (Product #BR100050). […] The kinetics parameters were obtained by applying 1:1 binding model to fit the data from multiple-cycle injection experiments using Biacore Insight Evaluation software.
In the case of B1, the Kd is reported as 0.637 nM, the koff is reported as 0.0039 s⁻¹ and the kon is reported as 6.12e+06 M⁻¹ s⁻¹. B2 was tested, and the Kd was 0.638 nM and the koff was 0.00248 s⁻¹. Work on B3 yielded a Kd of 6.23 nM, a koff of 0.00475 s⁻¹ and a kon of 762000 M⁻¹ s⁻¹. With B4 the Kd was 2.75 nM, the koff was 0.0024 s⁻¹ and the kon was 873000 M⁻¹ s⁻¹. Binder B5 has a Kd of 2.01 nM, a koff of 0.0018 s⁻¹ and a kon of 892000 M⁻¹ s⁻¹. B6 showed a Kd of 6.62 nM, a koff of 0.00494 s⁻¹ and a kon of 746000 M⁻¹ s⁻¹. B7 showed a Kd of 4.83 nM, a koff of 0.00481 s⁻¹ and a kon of 996000 M⁻¹ s⁻¹. In the case of B8, the Kd is reported as 4.71 nM, the koff is reported as 0.00509 s⁻¹ and the kon is reported as 1.08e+06 M⁻¹ s⁻¹. Binder B9 has a Kd of 5.61 nM, a koff of 0.0175 s⁻¹ and a kon of 3.13e+06 M⁻¹ s⁻¹. B10 was tested, and the Kd was 1.61 nM, the koff was 0.00207 s⁻¹ and the kon was 1.29e+06 M⁻¹ s⁻¹. B11 showed a Kd of 4.76 nM, a koff of 0.0154 s⁻¹ and a kon of 3.23e+06 M⁻¹ s⁻¹. B12 was tested, and the Kd was 4.9 nM, the koff was 0.0155 s⁻¹ and the kon was 3.16e+06 M⁻¹ s⁻¹. Work on B13 yielded a Kd of 1.19 nM, a koff of 0.00153 s⁻¹ and a kon of 1.29e+06 M⁻¹ s⁻¹. With B14 the Kd was 1.76 nM, the koff was 0.00992 s⁻¹ and the kon was 5.62e+06 M⁻¹ s⁻¹. B15 showed a Kd of 0.53 nM, a koff of 0.00527 s⁻¹ and a kon of 9.94e+06 M⁻¹ s⁻¹. For B16, the Kd was 1.04 nM, the koff was 0.00128 s⁻¹ and the kon was 1.23e+06 M⁻¹ s⁻¹. B17 showed a Kd of 0.826 nM, a koff of 0.00702 s⁻¹ and a kon of 8.51e+06 M⁻¹ s⁻¹. In the case of B18, the Kd is reported as 2.16 nM, the koff is reported as 0.00244 s⁻¹ and the kon is reported as 1.13e+06 M⁻¹ s⁻¹. In the case of B19, the Kd is reported as 1.39 nM, the koff is reported as 0.00631 s⁻¹ and the kon is reported as 4.53e+06 M⁻¹ s⁻¹.
